Measured values: article PMC12264150, “A chromatin-remodeling-independent role for ATRX in protecting centromeric cohesion” (The EMBO Journal, 2025)
Numbering of substitutions follows the chain as printed.

B1: GFP-ATRX (1394–1443)-2xStrep (domain or fragment, UniProt P46100 1394-1443, looked up)
chain: SESEDEQRPRTRSAKKAELEENQRSYKQKKKRRRIKVQEDSSSENKSNSE
notes: source: E. coli BL21 (DE3), purified (Strep-Tactin Superflow); not shown: GFP, N-terminal, kept; 2xStrep, C-terminal, kept
B2: Wapl (1–28)-GST (domain or fragment, UniProt Q7Z5K2 1-28, looked up)
chain: MTSRFGKTYSRKGGNGSSKFDEVFSNKR
notes: Wapl residues 1–28, in pETGEX-CT; also called short Wapl fragment (residues 1–28) containing the YSR motif; Wapl (1–28)-GST WT; source: E. coli BL21 (DE3), purified (Glutathione Sepharose 4B); not shown: GST, C-terminal, kept
B3: GFP-ATRX (1394–1443)-2xStrep K1420A (domain or fragment, UniProt P46100 1394-1443, looked up)
chain: B1 chain with K27A
notes: as for B1
B4: GFP-ATRX (1394–1443)-2xStrep Q1421A (domain or fragment, UniProt P46100 1394-1443, looked up)
chain: B1 chain with Q28A
notes: as for B1
B5: GFP-ATRX (1394–1443)-2xStrep E1413A (domain or fragment, UniProt P46100 1394-1443, looked up)
chain: B1 chain with E20A
notes: as for B1
B6: GFP-ATRX (1394–1443)-2xStrep N1415A (domain or fragment, UniProt P46100 1394-1443, looked up)
chain: B1 chain with N22A
notes: as for B1
B7: GFP-ATRX (1394–1443)-2xStrep R1417A (domain or fragment, UniProt P46100 1394-1443, looked up)
chain: B1 chain with R24A
notes: as for B1
B8: GFP-ATRX (1394–1443)-2xStrep S1418A (domain or fragment, UniProt P46100 1394-1443, looked up)
chain: B1 chain with S25A
notes: as for B1
B9: GFP-ATRX (1394–1443)-2xStrep E1414A (domain or fragment, UniProt P46100 1394-1443, looked up)
chain: B1 chain with E21A
notes: as for B1
B10: GFP-ATRX (1394–1443)-2xStrep Q1416A (domain or fragment, UniProt P46100 1394-1443, looked up)
chain: B1 chain with Q23A
notes: as for B1

Target: T1, MBP-Pds5B (1–300) (UniProt Q9NTI5 1-300)
T1 construct: Pds5B residues 1–300, in pMAL-C2E; also called recombinant MBP-Pds5B (1–300); purified MBP-Pds5B; source: E. coli BL21 (DE3), purified (Amylose Resin); not shown: MBP, N-terminal, kept
T1 sequence (looked up): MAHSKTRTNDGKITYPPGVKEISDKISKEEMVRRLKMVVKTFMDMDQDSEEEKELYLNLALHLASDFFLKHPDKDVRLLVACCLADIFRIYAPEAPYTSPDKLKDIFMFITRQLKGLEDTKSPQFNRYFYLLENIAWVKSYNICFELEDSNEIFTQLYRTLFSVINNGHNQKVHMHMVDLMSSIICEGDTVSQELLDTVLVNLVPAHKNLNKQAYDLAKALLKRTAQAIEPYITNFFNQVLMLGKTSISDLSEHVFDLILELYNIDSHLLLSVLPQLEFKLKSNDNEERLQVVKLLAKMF
Experiment: pull-down; competitive: purified MBP-Pds5B (1–300) mixed with GFP-2xStrep or increasing amounts of GFP-ATRX (1394–1443)-2xStrep (WT or Y1419A), pulled down with Wapl (1–28)-GST
Conditions: both partners purified

Binding result, binds:
B1, B2

Target: T2, GST-Pds5B (1–300) (UniProt Q9NTI5 1-300)
T2 construct: Pds5B residues 1–300, in pGEX-4T1; also called GST-fused Pds5B (1–300) fragment; GST-Pds5B (1–300) WT; source: E. coli BL21 (DE3), purified (Glutathione Sepharose 4B); not shown: GST, N-terminal, kept
T2 sequence (looked up): T1 sequence (looked up)
Experiment: pull-down; recombinant GFP-ATRX (1394–1443)-2xStrep (wild-type or mutants) pulled down with GST or GST-Pds5B (1–300); immunoblot for GFP and CBB
Conditions: both partners purified

Binding result, binds:
B1, B3, B4, B5, B6, B7, B8, B9, B10
